Source: publication PMC4009068

How the values were obtained:
[1] = biological target: Atg19 (wild type full-length protein) (yeast) (UniProt P35193); assay: ITC
Atg19 C-terminus (yeast) = Atg19 C-terminus (yeast) (UniProt P35193); assay: SEC

- Kd [1]: 35 µM
- stoichiometry N (Atg8 molecules per 1 Atg19 C-terminus) (Atg19 C-terminus (yeast)): 4.14
Substance: Atg8 (from UniProt P38182 1-117) (natural protein)
